Experimental data taken from IntAct's records for PubMed 18046461.

B1: Mitogen-activated protein kinase 8 (Rattus norvegicus (Rat)), P49185 (parent)
chain: MSRSKRDNNFYSVEIADSTFTVLKRYQNLKPIGSGAQGIVCAAYDAILERNVAIKKLSRPFQNQTHAKRAYRELVLMKCVNHKNIIGLLNVFTPQKSLEEFQDVYIVMELMDANLCQVIQMELDHERMSYLLYQMLCGIKHLHSAGIIHRDLKPSNIVVKSDCTLKILDFGLARTAGTSFMMTPYVVTRYYRAPEVILGMGYKENVDLWSVGCIMGEMVCLKILFPGRDYIDQWNKVIEQLGTPCPEFMKKLQPTVRTYVENRPKYAGYSFEKLFPDVLFPADSEHNKLKASQARDLLSKMLVIDASKRISVDEALQHPYINVWYDPSEAEAPPPKIPDKQLDEREHTIEEWKELIYKEVMDLEERTKNGVIRGQPSPLGAAVINGSQHPVSSPSVNDMSSMSTDPTLASD
partner: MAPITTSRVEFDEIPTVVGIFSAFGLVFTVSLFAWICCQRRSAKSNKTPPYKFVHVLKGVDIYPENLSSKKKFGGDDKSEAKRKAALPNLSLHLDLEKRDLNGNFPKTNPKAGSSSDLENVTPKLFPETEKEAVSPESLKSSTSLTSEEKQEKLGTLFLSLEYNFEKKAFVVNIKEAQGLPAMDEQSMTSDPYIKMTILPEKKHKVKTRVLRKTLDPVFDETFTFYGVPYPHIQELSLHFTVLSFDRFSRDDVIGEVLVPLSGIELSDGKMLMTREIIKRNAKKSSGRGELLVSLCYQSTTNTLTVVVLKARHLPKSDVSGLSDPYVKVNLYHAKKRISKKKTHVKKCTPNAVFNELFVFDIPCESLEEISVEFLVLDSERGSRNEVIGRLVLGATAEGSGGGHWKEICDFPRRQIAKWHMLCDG
B2: Mitogen-activated protein kinase 8 (Rattus norvegicus (Rat)), P49185 (parent)
chain: B1 chain

Tests used:
syt4_rat Syt4, P50232 [1] = variants of: B1; details: with syt4_rat Syt4, P50232
syt4_rat Syt4, P50232 [2] = variants of: B1; details: with syt4_rat Syt4, P50232; remark: listed apart in the source
syt4_rat Syt4, P50232 [3] = variants of: B1; details: with syt4_rat Syt4, P50232; remark: listed apart in the source
jun_rat Jun, P17325 [4] = variants of: B2; details: with jun_rat Jun
jun_rat Jun, P17325 [5] = variants of: B2; details: with jun_rat Jun; remark: listed apart in the source

| effect of a mutation on the interaction (syt4_rat Syt4, P50232 [1]) | effect of a mutation on the interaction (syt4_rat Syt4, P50232 [2]) | effect of a mutation on the interaction (syt4_rat Syt4, P50232 [3]) | effect of a mutation on the interaction (jun_rat Jun, P17325 [4]) | effect of a mutation on the interaction (jun_rat Jun, P17325 [5]) | Variant |
| --- | --- | --- | --- | --- | --- |
| disrupting interaction | decreasing interaction |  |  |  | D326N |
| disrupting interaction | decreasing interaction |  |  |  | E329N |
| disrupting interaction | decreasing interaction |  |  |  | E331N |
| disrupting interaction |  | decreasing interaction |  |  | D162T |
|  |  |  | disrupting interaction | decreasing interaction | E331N |
|  |  |  | disrupting interaction | decreasing interaction | D326N |
|  |  |  | disrupting interaction |  | D162T |
|  |  |  | disrupting interaction | decreasing interaction | E329N |
